# Laboratory results published in the supplement of paper PMC9112550, “Optimization of the antimicrobial peptide Bac7 by deep mutational scanning” (BMC Biology, 2022).
# System: Escherichia coli TOP10
# Assay: shrunken log2 fold change of peptide-encoding DNA abundance (4.5 h post-induction vs induction); higher = less antimicrobial activity (less host growth inhibition)
# Settings: time post-induction: 4.5 h; library: site-saturation at positions 5, 18, 19, 20
# 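Further: peptides expressed intracellularly from a pBAD plasmid library in pooled LB shake-flask culture, induced with 0.3% L-arabinose, DNA abundance read by NGS, three biological replicates, DESeq2 with apeglm shrinkage.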
row,Sequence,shrunken log2 fold change
1,RRIRSRPPRLPRPRPRPYNMPRP,-0.817
2,RRIRARPPRLPRPRPRPHKFPRP,-0.0967
3,RRIRWRPPRLPRPRPRPDVDPRP,-0.0413
4,RRIRHRPPRLPRPRPRPCYNPRP,-0.427
5,RRIRMRPPRLPRPRPRPVHAPRP,1.18
6,RRIRCRPPRLPRPRPRPLFFPRP,-0.273
7,RRIRSRPPRLPRPRPRPQFDPRP,-0.00423
8,RRIRPRPPRLPRPRPRPYNAPRP,-0.608
9,RRIRQRPPRLPRPRPRPCCIPRP,-0.159
10,RRIRPRPPRLPRPRPRPSTDPRP,-0.207
11,RRIRGRPPRLPRPRPRPVFLPRP,-0.0506
12,RRIRERPPRLPRPRPRPQQNPRP,-0.122
13,RRIRERPPRLPRPRPRPVDTPRP,0.000639
14,RRIRHRPPRLPRPRPRPWRYPRP,-0.49
15,RRIRPRPPRLPRPRPRPTNHPRP,-0.134
16,RRIRVRPPRLPRPRPRPLIYPRP,-0.632
17,RRIRVRPPRLPRPRPRPWDSPRP,-0.181
18,RRIRFRPPRLPRPRPRPARHPRP,0.262
19,RRIRWRPPRLPRPRPRPYPIPRP,0.0625
20,RRIRLRPPRLPRPRPRPHFGPRP,0.0847
21,RRIRLRPPRLPRPRPRPDCSPRP,0.0574
22,RRIRNRPPRLPRPRPRPTWSPRP,-0.352
23,RRIRKRPPRLPRPRPRPPLEPRP,0.456
24,RRIRVRPPRLPRPRPRPIGGPRP,0.801
25,RRIRLRPPRLPRPRPRPKFSPRP,-0.0419

row,Sequence,shrunken log2 fold change
1,RRIRRRPPRLPRPRPRPYFWPRP,0.0638
2,RRIRSRPPRLPRPRPRPRQGPRP,0.185
3,RRIRNRPPRLPRPRPRPQRLPRP,0.0491
4,RRIRYRPPRLPRPRPRPLKVPRP,-0.0432
5,RRIRQRPPRLPRPRPRPCPCPRP,-0.354
6,RRIRTRPPRLPRPRPRPAHIPRP,0.0726
7,RRIRNRPPRLPRPRPRPKDKPRP,-0.112
8,RRIRLRPPRLPRPRPRPLFSPRP,-0.588
9,RRIRMRPPRLPRPRPRPFFKPRP,-0.116
10,RRIRTRPPRLPRPRPRPWVSPRP,0.137
11,RRIRPRPPRLPRPRPRPLPLPRP,-0.128
12,RRIRCRPPRLPRPRPRPPLSPRP,0.312
13,RRIRLRPPRLPRPRPRPLIEPRP,0.0414
14,RRIRKRPPRLPRPRPRPNRVPRP,-0.00538
15,RRIRCRPPRLPRPRPRPEKLPRP,-0.077
16,RRIRSRPPRLPRPRPRPLTGPRP,0.043
17,RRIRWRPPRLPRPRPRPPEFPRP,0.094
18,RRIRARPPRLPRPRPRPFCVPRP,0.19
19,RRIRQRPPRLPRPRPRPPYAPRP,-0.189
20,RRIRMRPPRLPRPRPRPYWMPRP,-1.18
21,RRIRHRPPRLPRPRPRPPPCPRP,0.603
22,RRIRPRPPRLPRPRPRPCWIPRP,-0.456
23,RRIRTRPPRLPRPRPRPPRFPRP,0.219
24,RRIRRRPPRLPRPRPRPVMDPRP,-0.0641
25,RRIRQRPPRLPRPRPRPYDKPRP,-0.119

row,Sequence,shrunken log2 fold change
1,RRIRMRPPRLPRPRPRPNCWPRP,0.755
2,RRIRFRPPRLPRPRPRPDWIPRP,-0.114
3,RRIRWRPPRLPRPRPRPRQFPRP,0.0819
4,RRIRGRPPRLPRPRPRPEIYPRP,0.26
5,RRIRGRPPRLPRPRPRPFSAPRP,0.0503
6,RRIRKRPPRLPRPRPRPPAQPRP,0.698
7,RRIRNRPPRLPRPRPRPHQDPRP,-0.297
8,RRIRCRPPRLPRPRPRPVMYPRP,-0.199
9,RRIRYRPPRLPRPRPRPSIIPRP,-0.236
10,RRIRGRPPRLPRPRPRPQDKPRP,0.0315
11,RRIRDRPPRLPRPRPRPNAKPRP,0.128
12,RRIRARPPRLPRPRPRPIYTPRP,-0.387
13,RRIRWRPPRLPRPRPRPNPTPRP,-0.0571
14,RRIRVRPPRLPRPRPRPLYWPRP,-0.329
15,RRIRNRPPRLPRPRPRPMVPPRP,0.0885
16,RRIRSRPPRLPRPRPRPHLIPRP,-0.303
17,RRIRMRPPRLPRPRPRPMQFPRP,0.167
18,RRIRYRPPRLPRPRPRPQDSPRP,-0.0125
19,RRIRMRPPRLPRPRPRPRMGPRP,1.11
20,RRIRGRPPRLPRPRPRPDLHPRP,0.655
21,RRIRNRPPRLPRPRPRPEHAPRP,0.0107
22,RRIRFRPPRLPRPRPRPQVQPRP,-0.0485
23,RRIRDRPPRLPRPRPRPNRMPRP,-0.196
24,RRIRGRPPRLPRPRPRPIHEPRP,-0.135
25,RRIRGRPPRLPRPRPRPGWFPRP,0.27
